Laboratory results reported in patent US20080138349A1 (MacroGenics, published 2008).
Numbering of substitutions follows the chain as printed. Names and notes keep the numbering of the source.

B1: ch4-4-20 S298N, K360R, N361D (antibody)
chain: EPKSCDKTHTCPPCPAPELLGGPSVFLFPPKPKDTLMISRTPEVTCVVVDVSHEDPEVKFNWYVDGVEVHNAKTKPREEQYNNTYRVVSVLTVLHQDWLNGKEYKCKVSNKALPAPIEKTISKAKGQPREPQVYTLPPSREEMTRDQVSLTCLVKGFYPSDIAVEWESNGQPENNYKTTPPVLDSDGSFFLYSKLTVDKSRWQQGNVFSCSVMHEALHNHYTQKSLSLSPGK
B2: ch4-4-20 K288M, K334E (antibody)
chain 1: not shown
chain 2: DVVMTQTPLSLPVSLGDQASISCRSSQSLVHSNGNTYLRWYLQKPGQSPKVLIYKVSNRFSGVPDRFSGSGSGTDFTLKISRVEAEDLGVYFCSQSTHVPWTFGGGTKLEIKRTVAAPSVFIFPPSDEQLKSGTASVVCLLNNFYPREAKVQWKVDNALQSGNSQESVTEQDSKDSTYSLSSTLTLSKADYEKHKVYACEVTHQGLSSPVTKSFNRGEC
B3: ch4-4-20 Mut23 (antibody)
chain 1: not shown
chain 2: B2 chain 2
B4: ch-mAb 2B6 MgFc31/60 (P247L, D270E, N421K) (antibody)
chain: ASTKGPSVFPLAPSSKSTSGGTAALGCLVKDYFPEPVTVSWNSGALTSGVHTFPAVLQSSGLYSLSSVVTVPSSSLGTQTYICNVNHKPSNTKVDKKVEPKSCDKTHTCPPCPAPELLGGPSVFLFPPKLKDTLMISRTPEVTCVVVDVSHEEPEVKFNWYVDGVEVHNAKTKPREEQYNSTYRVVSVLTVLHQDWLNGKEYKCKVSNKALPAPIEKTISKAKGQPREPQVYTLPPSRDELTKNQVSLTCLVKGFYPSDIAVEWESNGQPENNYKTTPPVLDSDGSFFLYSKLTVDKSRWQQGKVFSCSVMHEALHNHYTQKSLSLSPGK
B5: ch-mAb 2B6 MgFc51/60 (Q419H, P396L with D270E) (antibody)
chain: B4 chain with L130P, P279L, Q302H, K304N
B6: ch-mAb 2B6 MgFc59/60 (K370E, P396L with D270E) (antibody)
chain: B4 chain with L130P, K253E, P279L, K304N

Key:
[1] = biological target: T1, FcγRIIB-Fc fusion protein, soluble dimeric: extracellular domain of FcγRIIB fused to the hinge-CH2-CH3 domain … (human, UniProt P31994 43-217, limits assumed); assay: BIAcore, ch4-4-20
T1 construct: extracellular domain; also called FcRIIB-Fc; FcR2B; not shown: human IgG2 hinge-CH2-CH3
T1 sequence (looked up): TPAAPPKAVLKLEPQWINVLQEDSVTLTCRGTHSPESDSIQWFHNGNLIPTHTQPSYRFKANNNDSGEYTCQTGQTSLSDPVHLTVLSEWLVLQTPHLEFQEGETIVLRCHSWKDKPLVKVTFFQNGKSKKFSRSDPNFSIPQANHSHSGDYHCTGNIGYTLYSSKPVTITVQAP

[2] = biological target: T2, FcγRIIIA (UniProt P08637 17-208, limits assumed); assay: ELISA
T2 construct: also called CD16A
T2 sequence (P08637 17-208 limits assumed): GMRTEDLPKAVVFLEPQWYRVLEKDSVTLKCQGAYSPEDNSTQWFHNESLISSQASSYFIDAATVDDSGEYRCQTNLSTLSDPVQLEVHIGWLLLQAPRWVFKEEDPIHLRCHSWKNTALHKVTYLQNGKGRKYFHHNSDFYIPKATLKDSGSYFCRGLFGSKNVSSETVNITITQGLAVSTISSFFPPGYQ

[3] = biological target: T2, FcγRIIIA; assay: ELISA; remark: listed apart in the source
[4] = biological target: T1, FcγRIIB-Fc fusion protein, soluble …; assay: ELISA of the ch4-4-20 Fc variant for FcγRIIB-Fc fusion protein, value listed beside the sensorgram
[5] = biological target: T2, FcγRIIIA; assay: ELISA; remark: listed apart in the source
[6] = biological target: T3, soluble monomeric FcγRIIIA, the extracellular region of FcγRIIIA joined to the linker-AVITAG sequence (UniProt P08637 17-208, limits assumed); assay: BIAcore
T3 construct: extracellular domain; also called FcRIIIA; FcR3A
T3 sequence (P08637 17-208 limits assumed): as above

[7] = biological target: T1, FcγRIIB-Fc fusion protein, soluble …; assay: BIAcore
[8] = biological target: T3, soluble monomeric FcγRIIIA, the …; assay: BIAcore, antibody captured on BSA-FITC
[9] = biological target: T4, 2aR131Fcagl (FcγRIIA 131R-Fc) (UniProt P12318 34-217, limits assumed); assay: BIAcore, 2B6 captured by soluble CD32B
T4 construct: not shown: Fc part; label Fcagl is not explained
T4 sequence (looked up): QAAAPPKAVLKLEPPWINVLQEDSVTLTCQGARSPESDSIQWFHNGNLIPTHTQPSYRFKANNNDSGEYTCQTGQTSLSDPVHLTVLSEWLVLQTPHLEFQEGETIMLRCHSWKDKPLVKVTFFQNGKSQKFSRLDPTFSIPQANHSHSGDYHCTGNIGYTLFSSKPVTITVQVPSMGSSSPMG

[10] = biological target: T5, FcγRIIIA 158V, soluble (UniProt P08637 17-208, limits assumed); assay: BIAcore, 2B6 captured by soluble CD32B
T5 construct: also called 3aV158
T5 sequence (P08637 17-208 F176V limits assumed): as the sequence (P08637 17-208 limits assumed) above, with F160V counted along it

[11] = biological target: T6, 2bfcagl (FcγRIIB-Fc) (UniProt P31994 43-217, limits assumed); assay: BIAcore, 2B6 captured by soluble CD32B
T6 construct: label not explained; may be m4 or an aglycosylated form of it; not shown: Fc part; label fcagl is not explained
T6 sequence (looked up): T1 sequence (looked up)

[12] = biological target: T7, 2aH131Fcagl (FcγRIIA 131H-Fc) (UniProt P12318 34-217, limits assumed); assay: BIAcore, 2B6 captured by soluble CD32B
T7 construct: also called FcγRIIA H131; not shown: Fc part; label Fcagl is not explained
T7 sequence (looked up): T4 sequence (looked up) with R134H

[13] = biological target: T8, FcγRIIIA 158F, soluble (UniProt P08637 17-208, limits assumed); assay: BIAcore, 2B6 captured by soluble CD32B
T8 construct: also called 3aF158
T8 sequence (P08637 17-208 limits assumed): as the sequence (P08637 17-208 limits assumed) above

[14] = biological target: T9, C1q; assay: BIAcore, 2B6 captured by soluble CD32B
T9 construct: also called first component of the complement cascade
T9 sequence (P02745 23-245, chain 1 of 3): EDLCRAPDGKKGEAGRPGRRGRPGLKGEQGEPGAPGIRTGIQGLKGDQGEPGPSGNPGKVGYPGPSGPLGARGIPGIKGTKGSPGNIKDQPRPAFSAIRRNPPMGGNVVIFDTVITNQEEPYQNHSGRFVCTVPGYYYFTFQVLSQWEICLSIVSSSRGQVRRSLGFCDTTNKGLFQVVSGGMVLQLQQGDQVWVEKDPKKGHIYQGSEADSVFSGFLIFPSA
T9 sequence (P02746 28-253, chain 2 of 3, further chain): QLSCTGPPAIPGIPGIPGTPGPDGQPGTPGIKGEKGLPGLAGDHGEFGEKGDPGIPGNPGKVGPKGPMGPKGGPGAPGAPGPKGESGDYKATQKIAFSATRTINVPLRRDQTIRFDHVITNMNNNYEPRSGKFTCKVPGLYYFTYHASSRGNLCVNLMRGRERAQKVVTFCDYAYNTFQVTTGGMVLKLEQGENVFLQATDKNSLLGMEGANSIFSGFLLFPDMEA
T9 sequence (P02747 29-245, chain 3 of 3, further chain): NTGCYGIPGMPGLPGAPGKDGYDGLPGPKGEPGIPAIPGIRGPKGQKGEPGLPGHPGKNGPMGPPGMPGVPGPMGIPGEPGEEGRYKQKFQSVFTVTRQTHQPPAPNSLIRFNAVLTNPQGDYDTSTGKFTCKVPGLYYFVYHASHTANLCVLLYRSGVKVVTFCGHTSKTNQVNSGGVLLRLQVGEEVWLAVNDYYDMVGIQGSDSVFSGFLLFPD

Row | Binder | ELISA, OD [3] | ELISA, OD [4] | Kd [8] | koff [8] | kon [8] | koff [9] | koff [10] | koff [11] | koff [12] | koff [13] | koff [14] | other results
1 | B1 | – | – | – | – | – | – | – | – | – | – | – | Koff WT/Mut [1]: 0.67
2 | B2 | 1.1 OD | 0.13 OD | 75.4 nM | 0.1 s⁻¹ | 1.37e+06 M⁻¹ s⁻¹ | – | – | – | – | – | – | ELISA IIIA binding vs wt [2]: 3 X; ELISA binding increase vs wt [5]: 3 x; Kd [6]: 75.4 nM; koff [6]: 0.1 s⁻¹; Kd [7]: 95.6 nM; koff [7]: 0.089 s⁻¹
3 | B3 | 1.25 OD | 0.1 OD | 70.2 nM | 0.105 s⁻¹ | 1.43e+06 M⁻¹ s⁻¹ | – | – | – | – | – | – | –
4 | B4 | – | – | – | – | – | 0.127 s⁻¹ | 0.084 s⁻¹ | 0.094 s⁻¹ | 0.034 s⁻¹ | 0.238 s⁻¹ | – | –
5 | B5 | – | – | – | – | – | 0.089 s⁻¹ | 0.112 s⁻¹ | 0.077 s⁻¹ | 0.028 s⁻¹ | 0.293 s⁻¹ | 0.079 s⁻¹ | –
6 | B6 | – | – | – | – | – | 0.095 s⁻¹ | 0.105 s⁻¹ | 0.078 s⁻¹ | 0.024 s⁻¹ | 0.296 s⁻¹ | 0.107 s⁻¹ | –
